Here are results for one molecule from PMC7843029 (Cell, 2021).

The target of the assay is T1, RBD mouse Fc-tagged antigen (Sino Biological, Cat. No. 40592-V05H) (SARS-CoV-2, UniProt P0DTC2).
T1 construct: source: bought: Sino Biological
Put plainly: ELISA. Particulars: both partners purified.

B1: S304 IgG (antibody, V domains shown)
VH: EVQLVESGGGLVQPGGSLRLSCAASGFTFSSYDMHWVRQTTGKGLEWVSTIGTAGDTYYPDSVKGRFTISREDAKNSLYLQMNSLRAGDTAVYYCARGDSSGYYYYFDYWGQGTLLTVSS
VL: DIQMTQSPSSLSAAVGDRVTITCRASQSIGSYLNWYQQKPGKAPKLLIYAASSLQSGVPSRFSGSGSGTDFTLTISSLQPEDFAIYYCQQSYVSPTYTFGPGTKVDIK
notes: copies: 2 + 2
As for B1, the binding result is given as “binds”.
